{
  "source": "IntAct's records for PubMed 25006247",
  "parents": {"B1": {"name": "Pyrin (Homo sapiens), O15553 (parent)", "chain": "MAKTPSDHLLSTLEELVPYDFEKFKFKLQNTSVQKEHSRIPRSQIQRARPVKMATLLVTYYGEEYAVQLTLQVLRAINQRLLAEELHRAAIQEYSTQENGTDDSAASSSLGENKPRSLKTPDHPEGNEGNGPRPYGGGAASLRCSQPEAGRGLSRKPLSKRREKASEGLDAQGKPRTRSPALPGGRSPGPCRALEGGQAEVRLRRNASSAGRLQGLAGGAPGQKECRPFEVYLPSGKMRPRSLEVTISTGEKAPANPEILLTLEEKTAANLDSATEPRARPTPDGGASADLKEGPGNPEHSVTGRPPDTAASPRCHAQEGDPVDGTCVRDSCSFPEAVSGHPQASGSRSPGCPRCQDSHERKSPGSLSPQPLPQCKRHLKQVQLLFCEDHDEPICLICSLSQEHQGHRVRPIEEVALEHKKKIQKQLEHLKKLRKSGEEQRSYGEEKAVSFLKQTEALKQRVQRKLEQVYYFLEQQEHFFVASLEDVGQMVGQIRKAYDTRVSQDIALLDALIGELEAKECQSEWELLQDIGDILHRAKTVPVPEKWTTPQEIKQKIQLLHQKSEFVEKSTKYFSETLRSEMEMFNVPELIGAQAHAVNVILDAETAYPNLIFSDDLKSVRLGNKWERLPDGPQRFDSCIIVLGSPSFLSGRRYWEVEVGDKTAWILGACKTSISRKGNMTLSPENGYWVVIMMKENEYQASSVPPTRLLIKEPPKRVGIFVDYRVGSISFYNVTARSHIYTFASCSFSGPLQPIFSPGTRDGGKNTAPLTICPVGGQGPD"}},
  "data": [
    {"variants_of": "B1", "settings": "with asc_human PYCARD", "values": [
      {"variant": "V58A", "effect of a mutation on the interaction": "increasing interaction strength"},
      {"variant": "E14A", "effect of a mutation on the interaction": "decreasing interaction strength"},
      {"variant": "R80A", "effect of a mutation on the interaction": "decreasing interaction strength"},
      {"variant": "R49A", "effect of a mutation on the interaction": "with no effect"},
      {"variant": "K25A", "effect of a mutation on the interaction": "disrupting interaction strength"},
      {"variant": "R88A", "effect of a mutation on the interaction": "with no effect"},
      {"variant": "R75A", "effect of a mutation on the interaction": "decreasing interaction strength"},
      {"variant": "E22A", "effect of a mutation on the interaction": "increasing interaction strength"},
      {"variant": "Q29A", "effect of a mutation on the interaction": "with no effect"},
      {"variant": "Q46A", "effect of a mutation on the interaction": "with no effect"},
      {"variant": "A89T", "effect of a mutation on the interaction": "with no effect"},
      {"variant": "K3A", "effect of a mutation on the interaction": "with no effect"},
      {"variant": "K35A", "effect of a mutation on the interaction": "with no effect"},
      {"variant": "L71A", "effect of a mutation on the interaction": "decreasing interaction strength"},
      {"variant": "H37A", "effect of a mutation on the interaction": "with no effect"},
      {"variant": "R42W", "effect of a mutation on the interaction": "decreasing interaction strength"},
      {"variant": "R42A", "effect of a mutation on the interaction": "decreasing interaction strength"},
      {"variant": "E63A", "effect of a mutation on the interaction": "increasing interaction strength"},
      {"variant": "L10A", "effect of a mutation on the interaction": "decreasing interaction strength"},
      {"variant": "E84A", "effect of a mutation on the interaction": "with no effect"}
    ]},
    {"variants_of": "B1", "settings": "with asc_human PYCARD", "remark": "another data set of the same source", "values": [
      {"variant": "R42W", "effect of a mutation on the interaction": "with no effect"}
    ]}
  ]
}
